{"source": "patent US20190315837A1", "biological_target": "His-tagged human Her2/Neu protein (Her2-His) (human) (UniProt P04626)", "assay": "Octet (BLI), Her2-His on penta-His biosensor, antibody in solution"}
{"substance": "human IgG1 control (antibody)", "values": [{"measurement": "Kd", "value": "< 1", "unit": "pM"}, {"measurement": "koff", "value": "< 1e-07", "unit": "s⁻¹"}, {"measurement": "kon", "value": "1.04e+06", "unit": "M⁻¹ s⁻¹"}]}
